Results as given in IntAct's records for PubMed 20937695.

B1: "Na(+)/H(+) exchange regulatory cofactor NHE-RF1" (Homo sapiens), O14745 (parent)
chain: MSADAAAGAPLPRLCCLEKGPNGYGFHLHGEKGKLGQYIRLVEPGSPAEKAGLLAGDRLVEVNGENVEKETHQQVVSRIRAALNAVRLLVVDPETDEQLQKLGVQVREELLRAQEAPGQAEPPAAAEVQGAGNENEPREADKSHPEQRELRPRLCTMKKGPSGYGFNLHSDKSKPGQFIRSVDPDSPAEASGLRAQDRIVEVNGVCMEGKQHGDVVSAIRAGGDETKLLVVDRETDEFFKKCRVIPSQEHLNGPLPVPFTNGEIQKENSREALAEAALESPRPALVRSASSDTSEELNSQDSPPKQDSTAPSSTSSSDPILDFNISLAMAKERAHQKRSSKRAPQMDWSKKNELFSNL
B2: "Na(+)/H(+) exchange regulatory cofactor NHE-RF1" (Homo sapiens), O14745 (parent)
chain: B1 chain
partner: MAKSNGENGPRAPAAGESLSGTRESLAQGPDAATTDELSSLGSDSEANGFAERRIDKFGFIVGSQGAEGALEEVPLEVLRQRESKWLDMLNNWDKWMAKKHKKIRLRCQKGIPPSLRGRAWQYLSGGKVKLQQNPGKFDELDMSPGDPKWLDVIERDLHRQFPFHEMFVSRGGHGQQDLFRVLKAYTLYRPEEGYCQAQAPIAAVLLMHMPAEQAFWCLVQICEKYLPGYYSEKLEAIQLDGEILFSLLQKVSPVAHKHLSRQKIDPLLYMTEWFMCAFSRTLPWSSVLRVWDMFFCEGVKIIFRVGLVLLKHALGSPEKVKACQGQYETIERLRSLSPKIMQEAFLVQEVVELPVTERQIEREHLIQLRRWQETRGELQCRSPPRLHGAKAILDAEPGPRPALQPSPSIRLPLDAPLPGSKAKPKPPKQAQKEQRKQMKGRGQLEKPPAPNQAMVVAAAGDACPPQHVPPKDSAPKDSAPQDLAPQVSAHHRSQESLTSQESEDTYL

Variants of: B1
Conditions: with ezri_human EZR

effect of a mutation on the interaction | Variant
decreasing interaction strength | M346A;W348A
with no effect | F355A
disrupting interaction strength | F355R

Variants of: B1
Conditions: with ezri_human EZR
Remark: another data set of the same source

effect of a mutation on the interaction | Variant
decreasing interaction strength | S280D;S302D
decreasing interaction strength | S162D;S339D;S340D
decreasing interaction strength | S280A;S302A
decreasing interaction strength | S162A;S339A;S340A

Variants of: B2
Conditions: with tb10a_human TBC1D10A

effect of a mutation on the interaction | Variant
with no effect | S162D;S339D;S340D
with no effect | S162A;S339A;S340A
with no effect | S280D;S302D
with no effect | S280A;S302A
